In PMC4933879:
pKd: −log10 of the molar value. Values joined by “and” are separate entries in the source; they are usually repeats but may differ in a detail not shown here. Equal values may be shown once.

Tests used:
DARPin D1 = assay: SPR; Proteon XPR36; DARPins immobilised through their N-terminal His-tag on Ni2+-activated tris-NTA (HTG) sensor chip, tubulin injected at five concentrations; 20 °C; buffer of the fluorescence experiments with 20 μM EGTA and 0.005% Tween 20; Langmuir fit; for D1 also KD from the plateau values
TM-3 1-149 = assay: as above
[1] = target: acrylodan-labeled A-C2 (Q26C mutant); assay: fluorescence kinetics (stopped-flow and spectrofluorometer); koff: chase of acrylodan-labeled DARPin from tubulin by excess unlabeled DARPin (stopped-flow for D1, spectrofluorometer for high affinity DARPins), mono-exponential fit; kon: at least 5-fold excess of tubulin added to 50 nM labeled DARPin in a stopped-flow system, pseudo-first-order, slope of kobs against tubulin concentration
[2] = target: acrylodan-labeled D1 (Q26C mutant); assay: as above
[3] = target: acrylodan-labeled TM-3 variant (Q26C mutant); assay: as above
[4] = target: subtilisin-digested acrylodan-labeled TM-3 (C-cap-truncated TM-3); assay: as above
[5] = target: acrylodan-labeled A-C2 (Q26C mutant); assay: other fluorescence titration; fixed acrylodan-labeled DARPin (100 nM D1 or 15 nM high affinity DARPins) titrated with tubulin; 20 mM K-phosphate pH 7.2, 100 mM KCl, 1 mM MgCl2, 0.5 mM EGTA, 10 μM GDP, 20 °C; 1:1 quadratic fit
[6] = target: acrylodan-labeled D1 (Q26C mutant); assay: as above
[7] = target: acrylodan-labeled TM-3 variant (Q26C mutant); assay: as above
[8] = target: subtilisin-digested acrylodan-labeled TM-3 (C-cap-truncated TM-3); assay: as above

Sequence of TM-3 1-149 (main, as listed by the source): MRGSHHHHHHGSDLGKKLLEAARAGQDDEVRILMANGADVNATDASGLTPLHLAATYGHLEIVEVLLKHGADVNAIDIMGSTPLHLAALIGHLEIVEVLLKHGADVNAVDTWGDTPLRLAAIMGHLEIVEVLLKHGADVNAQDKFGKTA
Sequence of DARPin D1 (main, as listed by the source): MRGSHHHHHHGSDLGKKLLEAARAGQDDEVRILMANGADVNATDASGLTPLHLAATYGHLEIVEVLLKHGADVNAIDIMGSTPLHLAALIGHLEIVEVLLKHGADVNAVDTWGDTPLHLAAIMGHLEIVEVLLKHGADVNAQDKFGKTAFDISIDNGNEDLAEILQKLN

pKd (DARPin D1): 6.52 and 6.56 | koff (DARPin D1): 0.22 s⁻¹ | kon (DARPin D1): 800000 M⁻¹ s⁻¹ | pKd (TM-3 1-149): 8.80 | koff (TM-3 1-149): 0.0027 s⁻¹ | kon (TM-3 1-149): 1.7e+06 M⁻¹ s⁻¹ | pKd [1]: 9.35 | koff [1]: 0.0071 s⁻¹ | kon [1]: 1.6e+07 M⁻¹ s⁻¹ | pKd [2]: 6.94 | koff [2]: 1.49 s⁻¹ | kon [2]: 1.3e+07 M⁻¹ s⁻¹ | pKd [3]: 9.57 | koff [3]: 0.0049 s⁻¹ | kon [3]: 1.82e+07 M⁻¹ s⁻¹ | pKd [4]: 9.76 | koff [4]: 0.0046 s⁻¹ | kon [4]: 2.67e+07 M⁻¹ s⁻¹ | pKd [5]: 9.09 | pKd [6]: 6.90 | pKd [7]: 9.05 | pKd [8]: 8.99
Substance: αβ tubulin heterodimer (tubulin) (complex)
